Article PMC5021340, “The Involvement of Mig1 from Xanthophyllomyces dendrorhous in Catabolic Repression: An Active Mechanism Contributing to the Regulation of Carotenoid Production”

Target: Mig1 (Xanthophyllomyces dendrorhous, UniProt A0A1C9UL02 1-863)
Assay: EMSA; poly(dI-dC); 20 mM HEPES pH 7.9, 50 mM KCl, 1 mM DTT, 0.1 mM EDTA, 5% glycerol (+2.5%), 200 ug/ml BSA, 50 ng/ul poly(dI-dC), 0.05% NP-40, 20 fmol DNA, 10 ug Mig1 in 20 ul, room temperature 20 min
Conditions: protein: recombinant; (pET-TEV), removed by TEV protease; label: 5' biotin; blunt

Chain of Mig1 (A0A1C9UL02 entry or part of it): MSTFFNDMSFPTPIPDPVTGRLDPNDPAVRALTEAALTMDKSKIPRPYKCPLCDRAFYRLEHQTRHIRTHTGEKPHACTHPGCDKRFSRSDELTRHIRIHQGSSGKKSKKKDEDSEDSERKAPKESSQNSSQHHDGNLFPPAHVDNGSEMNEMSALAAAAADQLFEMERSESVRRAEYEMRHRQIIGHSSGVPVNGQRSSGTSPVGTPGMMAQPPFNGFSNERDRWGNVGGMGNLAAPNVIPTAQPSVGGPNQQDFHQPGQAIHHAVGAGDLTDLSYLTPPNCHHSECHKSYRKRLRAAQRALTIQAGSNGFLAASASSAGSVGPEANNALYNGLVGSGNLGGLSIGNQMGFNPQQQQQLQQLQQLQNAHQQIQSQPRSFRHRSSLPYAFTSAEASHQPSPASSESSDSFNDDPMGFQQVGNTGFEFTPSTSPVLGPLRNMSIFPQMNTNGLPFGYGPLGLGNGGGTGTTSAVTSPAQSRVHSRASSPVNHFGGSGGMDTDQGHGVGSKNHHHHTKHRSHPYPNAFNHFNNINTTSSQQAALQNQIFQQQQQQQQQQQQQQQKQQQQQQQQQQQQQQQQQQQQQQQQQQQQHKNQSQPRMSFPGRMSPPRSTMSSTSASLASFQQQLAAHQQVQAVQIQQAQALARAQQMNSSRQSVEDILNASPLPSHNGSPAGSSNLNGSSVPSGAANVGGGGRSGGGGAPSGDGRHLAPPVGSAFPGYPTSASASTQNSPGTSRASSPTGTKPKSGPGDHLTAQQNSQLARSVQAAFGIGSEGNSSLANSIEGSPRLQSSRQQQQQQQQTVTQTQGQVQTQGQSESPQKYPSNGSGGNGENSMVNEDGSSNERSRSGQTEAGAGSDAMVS

B1: grg2 box A (-348) 54 bp (dsDNA)
DNA 1: GAGGTATATGCGTTCCGCGAACTGCGGAGATGTGACGTCACATCTCGTCACAGC
DNA 2: GCTGTGACGAGATGTGACGTCACATCTCCGCAGTTCGCGGAACGCATATACCTC
B1: binds.
